Measured values: patent publication US20220220224A1 (Hoffmann-La Roche, published 2022)

What was measured:
[1] = target: T1, recombinant biotinylated monomeric Fc fusion of human Folate Receptor 2 (hu FolR2 ECD-AcTev-Fcknob-Avi tag … (human, UniProt P0DOX5 223-449 = IgG part, biotin on the C-terminal Avi tag)); assay: SPR Biacore, single injection on immobilized antigen-Fc
T1 construct: also called FolR2-Fc
Procedure: (§1) Binding of FolR1 binders as IgG or in the T-cell bispecific format to different recombinant folate receptors (human FolR1, 2 and 3, murine FolR1 and cynomolgus FolR1; all as Fc fusions) was assessed by surface plasmon resonance (SPR). All SPR experiments were performed on a Biacore T200 at 25° C. with HBS-EP as running buffer (0.01 M HEPES pH 7.4, 0.15 M NaCl, 3 mM EDTA, 0.005% Surfactant P20, Biacore, Freiburg/Germany).
(§2) First the anti-FolR1 IgGs were analyzed by single injections (Table 1) to characterize their crossreactivity (to human, murine and cyno FolR1) and specificity (to human FolR1, human FolR2, human FolR3). Recombinant biotinylated monomeric Fc fusions of human, cynomolgus and murine Folate Receptor 1 (FolR1-Fc) or human Folate Receptor 2 and 3 (FolR2-Fc, FolR3-Fc) were directly coupled on a SA chip using the standard coupling instruction (Biacore, Freiburg/Germany). The immobilization level was about 300-400 RU. The IgGs were injected for 60 seconds at a concentration of 500 nM.

[2] = target: T2, recombinant biotinylated monomeric Fc fusion of human Folate Receptor 3 (hu FolR3 ECD-AcTev-Fcknob-Avi tag … (human, UniProt P0DOX5 223-449 = IgG part, biotin on the C-terminal Avi tag)); assay: as above
T2 construct: also called FolR3-Fc
Procedure: as §1, §2

[3] = target: T3, recombinant biotinylated monomeric Fc fusion of cynomolgus Folate Receptor 1 (cy FolR1 ECD-AcTev-Fcknob-Avi … (cynomolgus, UniProt P0DOX5 223-449 = IgG part, biotin on the C-terminal Avi tag)); assay: SPR Biacore, avidity (bivalent, apparent KD), antigen-Fc on SA chip
T3 construct: also called cyFolR1-Fc; cyno FolR1
Procedure: (§3) The avidity of the interaction between the anti-FolR1 IgGs or T cell bispecifics and the recombinant folate receptors was determined as described below (Table 41).
(§4) Recombinant biotinylated monomeric Fc fusions of human, cynomolgus and murine Folate Receptor 1 (FolR1-Fc) were directly coupled on a SA chip using the standard coupling instruction (Biacore, Freiburg/Germany). The immobilization level was about 300. […] The dissociation was monitored for 240 or 600 seconds. Bulk refractive index differences were corrected for by subtracting the response obtained on reference flow cell immobilized with recombinant biotinylated murine IL2 receptor Fc fusion. The binding curves resulting from the bivalent binding of the IgG or T cell bispecifics were approximated to a 1:1 Langmuir binding (even though it is a 1:2 binding) and fitted with that model to get an apparent KD representing the avidity of the bivalent binding. The apparent avidity constants for the interactions were derived from the rate constants of the fitting using the Bia Evaluation software (GE Healthcare). For low affinity kinetics with association and dissociation phases too fast to be fitted by the 1:1 Langmuir binding model, the steady state analysis model was applied using the Bia Evaluation software (GE Healthcare). The steady state analysis gives the KD of the binding reaction at equilibrium.

[4] = target: T4, recombinant biotinylated monomeric Fc fusion of human Folate Receptor 1 (huFolR1 ECD-AcTev-Fcknob-Avi tag … (human, UniProt P0DOX5 223-449 = IgG part, biotin on the C-terminal Avi tag)); assay: as above
T4 construct: also called huFolR1-Fc; human FolR1-Fc
Procedure: as §3, §4

[5] = target: T4, recombinant biotinylated monomeric Fc …; assay: SPR Biacore, affinity (monovalent), antibody captured via anti-Fab
Procedure: The affinity of the interaction between the anti-FolR1 IgGs or the T cell bispecifics and the recombinant folate receptors was determined as described below (Table 42).
For affinity measurement, direct coupling of around 10000 resonance units (RU) of the anti-human Fab specific antibody (Fab capture kit, GE Healthcare) was performed on a CM5 chip at pH 5.0 using the standard amine coupling kit (GE Healthcare). Anti-FolR1 IgGs or T cell bispecifics were captured at 200 nM with a flow rate of 10 ul/min for 40 sec, the reference flow cell was left without capture. Dilution series (12.35 to 3000 nM) of human Folate Receptor 1 Fc fusion were passed on all flow cells at 30 μl/min for 240 sec to record the association phase. The dissociation phase was monitored for 300 s and triggered by switching from the sample solution to HBS-EP. The chip surface was regenerated after every cycle using a double injection of 60 sec 10 mM Glycine-HCl pH 1.5. Bulk refractive index differences were corrected for by subtracting the response obtained on the reference flow cell 1. The affinity constants for the interactions were derived from the rate constants by fitting to a 1:1 Langmuir binding using the Bia Evaluation software (GE Healthcare).

| binding result [1] | binding result [2] | Kd [3] [nM] | koff [3] [s⁻¹] | kon [3] [M⁻¹ s⁻¹] | Kd [4] [nM] | koff [4] [s⁻¹] | kon [4] [M⁻¹ s⁻¹] | Kd [5] [nM] | koff [5] [s⁻¹] | kon [5] [M⁻¹ s⁻¹] | Binder |
| --- | --- | --- | --- | --- | --- | --- | --- | --- | --- | --- | --- |
| no binding (tested: 500 nM) | no binding (tested: 500 nM) |  |  |  |  |  |  |  |  |  | 15H7 IgG (antibody, V domains shown, human IgG1) VH: QVQLVQSGAEVKKPGASVKVSCKASGYTFTSYYMHWVRQAPGQGLEWMGIINPSGGSTSYAQKFQGRVTMTRDTSTSTVYMELSSLRSEDTAVYYCARNYYLFSTSFDYWGQGTLVTVSS VL: QAVVTQEPSLTVSPGGTVTLTCGSSTGAVTTSNYANWVQEKPGQAFRGLIGGTNKRAPGTPARFSGSLLGGKAALTLSGAQPEDEAEYYCALWYSNLWVFGGGTKLTVL |
|  |  | 20 | 0.0078 | 439000 | 30 | 0.00323 | 125000 | 780 | 0.0123 | 15700 | 16D5 IgG variant R50S/S93A (HC/LC) (antibody, V domains shown, IgG) VH: not shown VL: QTVVTQEPSLTVSPGGTVTLTCGSSTGAVTTSNYANWVQQKPGQAPRGLIGGTNKRAPGTPARFSGSLLGGKAALTLSGVQPEDEAEYYCALWYANLWVFGGGTKLTVL |
|  |  | 80 | 0.0328 | 393000 | 60 | 0.0115 | 190000 | 1900 | 0.0174 | 9190 | 16D5 IgG variant G49S/K53A (HC/LC) (antibody, V domains shown, IgG) VH: not shown VL: QTVVTQEPSLTVSPGGTVTLTCGSSTGAVTTSNYANWVQQKPGQAPRGLIGGTNARAPGTPARFSGSLLGGKAALTLSGVQPEDEAEYYCALWYSNLWVFGGGTKLTVL |
|  |  | 30 | 0.0174 | 625000 | 30 | 0.0189 | 655000 | 420 | 0.0172 | 40500 | 16D5 IgG variant W96Y/S93A (HC/LC) (antibody, V domains shown, IgG) VH: not shown VL: QTVVTQEPSLTVSPGGTVTLTCGSSTGAVTTSNYANWVQQKPGQAPRGLIGGTNKRAPGTPARFSGSLLGGKAALTLSGVQPEDEAEYYCALWYANLWVFGGGTKLTVL |
| no binding (tested: 500 nM) | no binding (tested: 500 nM) |  |  |  |  |  |  |  |  |  | 16A3 IgG (antibody, V domains shown, human IgG1) VH: QVQLVQSGAEVKKPGASVKVSCKASGYTFTSYYMHWVRQAPGQGLEWMGIINPSGGSTSYAQKFQGRVTMTRDTSTSTVYMELSSLRSEDTAVYYCARNYYAGVTPFDYWGQGTLVTVSS VL: QAVVTQEPSLTVSPGGTVTLTCGSSTGAVTTSNYANWVQEKPGQAFRGLIGGTNKRAPGTPARFSGSLLGGKAALTLSGAQPEDEAEYYCALWYSNLWVFGGGTKLTVL |
|  |  | 80 | 0.0455 | 550000 | 60 | 0.0197 | 328000 | 1800 | 0.0245 | 13500 | 16D5 IgG variant R50S/K53A (HC/LC) (antibody, V domains shown, IgG) VH: not shown VL: QTVVTQEPSLTVSPGGTVTLTCGSSTGAVTTSNYANWVQQKPGQAPRGLIGGTNARAPGTPARFSGSLLGGKAALTLSGVQPEDEAEYYCALWYSNLWVFGGGTKLTVL |
|  |  | 1100 | 0.0404 | 34700 | 1400 | 0.0291 | 21000 |  |  |  | 16D5 IgG variant S35H/K53A (HC/LC) (antibody, V domains shown, IgG) VH: not shown VL: QTVVTQEPSLTVSPGGTVTLTCGSSTGAVTTSNYANWVQQKPGQAPRGLIGGTNARAPGTPARFSGSLLGGKAALTLSGVQPEDEAEYYCALWYSNLWVFGGGTKLTVL |

Second part, the binder before the results:

| Binder | binding result [1] | binding result [2] | Kd [3] [nM] | koff [3] [s⁻¹] | kon [3] [M⁻¹ s⁻¹] | Kd [4] [nM] | koff [4] [s⁻¹] | kon [4] [M⁻¹ s⁻¹] | Kd [5] [nM] | koff [5] [s⁻¹] | kon [5] [M⁻¹ s⁻¹] |
| --- | --- | --- | --- | --- | --- | --- | --- | --- | --- | --- | --- |
| 16D5 IgG variant S35H/wt (HC/LC) (antibody, V domains shown, IgG) VH: not shown VL: QAVVTQEPSLTVSPGGTVTLTCGSSTGAVTTSNYANWVQEKPGQAFRGLIGGTNKRAPGTPARFSGSLLGGKAALTLSGAQPEDEAEYYCALWYSNLWVFGGGTKLTVL |  |  | 55 | 0.0124 | 223000 | 40 | 0.00568 | 132000 | 1200 | 0.0113 | 8960 |
| 18D3 IgG (antibody, V domains shown, human IgG1) VH: QVQLVQSGAEVKKPGASVKVSCKASGYTFTSYYMHWVRQAPGQGLEWMGIINPSGGSTSYAQKFQGRVTMTRDTSTSTVYMELSSLRSEDTAVYYCARNYYTGGSSAFDYWGQGTLVTVS VL: QAVVTQEPSLTVSPGGTVTLTCGSSTGAVTTSNYANWVQEKPGQAFRGLIGGTNKRAPGTPARFSGSLLGGKAALTLSGAQPEDEAEYYCALWYSNLWVFGGGTKLTVL | no binding (tested: 500 nM) | no binding (tested: 500 nM) |  |  |  |  |  |  |  |  |  |
| 21D1 IgG (antibody, V domains shown, human IgG1) VH: QVQLVQSGAEVKKPGASVKVSCKASGYTFTSYYMHWVRQAPGQGLEWMGIINPSGGSTSYAQKFQGRVTMTRDTSTSTVYMELSSLRSEDTAVYYCARNYYVGVSPFDYWGQGTLVTVSS VL: QAVVTQEPSLTVSPGGTVTLTCGSSTGAVTTSNYANWVQEKPGQAFRGLIGGTNKRAPGTPARFSGSLLGGKAALTLSGAQPEDEAEYYCALWYSNLWVFGGGTKLTVL | no binding (tested: 500 nM) | no binding (tested: 500 nM) |  |  |  |  |  |  |  |  |  |
| 16D5 IgG variant S35H/S93A (HC/LC) (antibody, V domains shown, IgG) VH: not shown VL: QTVVTQEPSLTVSPGGTVTLTCGSSTGAVTTSNYANWVQQKPGQAPRGLIGGTNKRAPGTPARFSGSLLGGKAALTLSGVQPEDEAEYYCALWYANLWVFGGGTKLTVL |  |  | 110 | 0.0677 | 612000 | 90 | 0.022 | 243000 | 1300 | 0.0112 | 8430 |
| 16D5 IgG variant G49S/S93A (HC/LC) (antibody, V domains shown, IgG) VH: not shown VL: QTVVTQEPSLTVSPGGTVTLTCGSSTGAVTTSNYANWVQQKPGQAPRGLIGGTNKRAPGTPARFSGSLLGGKAALTLSGVQPEDEAEYYCALWYANLWVFGGGTKLTVL |  |  | 20 | 0.00622 | 358000 | 20 | 0.00306 | 152000 | 760 | 0.00799 | 10500 |
| 16D5 IgG variant W96Y/wt (HC/LC) (antibody, V domains shown, IgG) VH: not shown VL: QAVVTQEPSLTVSPGGTVTLTCGSSTGAVTTSNYANWVQEKPGQAFRGLIGGTNKRAPGTPARFSGSLLGGKAALTLSGAQPEDEAEYYCALWYSNLWVFGGGTKLTVL |  |  | 10 | 0.00211 | 173000 | 20 | 0.00213 | 129000 | 550 | 0.00544 | 9950 |
